# Measured values published in US20130064834A1 (published 2013).
# Assays:
# [1] = target: hPCSK9(P70A) (human, UniProt Q8NBP7 31-692); assay: SPR, mAb captured, 25C;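 further: antibodies held on a sensor chip bearing chemically coupled F(ab′)2 anti-human IgG as the capture surface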
# From the text: (§1) Each selected antibody was captured on a F(ab′)2 anti-hIgG surface created through direct chemical coupling to a BIACORE™ chip to form a captured antibody surface.
# [2] = target: hPCSK9(P70A, S147F) (human, UniProt Q8NBP7 31-692); assay: SPR, mAb captured, 25C;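 further: antibodies held on a sensor chip bearing chemically coupled F(ab′)2 anti-human IgG as the capture surface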
# From the text: as §1
# [3] = target: T1, Human PCSK9-myc-myc-his (human, UniProt Q8NBP7 31-692); assay: SPR, mAb captured, 25C;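 further: antibodies held on a sensor chip bearing chemically coupled F(ab′)2 anti-human IgG as the capture surface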
# T1 construct: also called hPCSK9-mmh; hPCSK9
# From the text: as §1
# [4] = target: T2, hPCSK9(D374Y)-mmh (human, UniProt Q8NBP7 31-692); assay: SPR, mAb captured, 25C;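 further: antibodies held on a sensor chip bearing chemically coupled F(ab′)2 anti-human IgG as the capture surface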
# T2 construct: also called hPCSK(D374Y)-mmh
# From the text: as §1
# [5] = target: T3, hPCSK9(S127R) (human, UniProt Q8NBP7 31-692); assay: SPR, mAb captured, 25C
# T3 construct: mmh-tagged variant hPCSK9
# From the text: as §1
# [6] = target: T4, hPCSK9(D129G) (human, UniProt Q8NBP7 31-692); assay: SPR, mAb captured, 25C
# T4 construct: mmh-tagged variant hPCSK9
# From the text: as §1
# [7] = target: T5, hPCSK9(S147F) (human, UniProt Q8NBP7 31-692); assay: SPR, mAb captured, 25C
# T5 construct: mmh-tagged variant hPCSK9
# From the text: as §1
# [8] = target: T6, hPCSK9(S153R) (human, UniProt Q8NBP7 31-692); assay: SPR, mAb captured, 25C
# T6 construct: mmh-tagged variant hPCSK9
# From the text: as §1
# [9] = target: T7, hPCSK9(E159R) (human, UniProt Q8NBP7 31-692); assay: SPR, mAb captured, 25C
# T7 construct: mmh-tagged variant hPCSK9
# From the text: as §1
# [10] = target: T8, hPCSK9(T162R) (human, UniProt Q8NBP7 31-692); assay: SPR, mAb captured, 25C
# T8 construct: mmh-tagged variant hPCSK9
# From the text: as §1
# [11] = target: T9, hPCSK9(D192R) (human, UniProt Q8NBP7 31-692); assay: SPR, mAb captured, 25C
# T9 construct: mmh-tagged variant hPCSK9
# From the text: as §1
# [12] = target: T10, hPCSK9(R194E) (human, UniProt Q8NBP7 31-692); assay: SPR, mAb captured, 25C
# T10 construct: mmh-tagged variant hPCSK9
# From the text: as §1
# [13] = target: T11, hPCSK9(E197R) (human, UniProt Q8NBP7 31-692); assay: SPR, mAb captured, 25C
# T11 construct: mmh-tagged variant hPCSK9
# From the text: as §1
# [14] = target: T12, hPCSK9(R215H) (human, UniProt Q8NBP7 31-692); assay: SPR, mAb captured, 25C
# T12 construct: mmh-tagged variant hPCSK9
# From the text: as §1
# [15] = target: T13, hPCSK9(R215E) (human, UniProt Q8NBP7 31-692); assay: SPR, mAb captured, 25C
# T13 construct: mmh-tagged variant hPCSK9
# From the text: as §1
# [16] = target: T14, hPCSK9(F216L) (human, UniProt Q8NBP7 31-692); assay: SPR, mAb captured, 25C
# T14 construct: mmh-tagged variant hPCSK9
# From the text: as §1
# [17] = target: T15, hPCSK9(D238R) (human, UniProt Q8NBP7 31-692); assay: SPR, mAb captured, 25C
# T15 construct: mmh-tagged variant hPCSK9
# From the text: as §1
# [18] = target: T16, hPCSK9(A341R) (human, UniProt Q8NBP7 31-692); assay: SPR, mAb captured, 25C
# T16 construct: mmh-tagged variant hPCSK9
# From the text: as §1
# [19] = target: T17, hPCSK9(D343R) (human, UniProt Q8NBP7 31-692); assay: SPR, mAb captured, 25C
# T17 construct: mmh-tagged variant hPCSK9
# From the text: as §1
# [20] = target: T18, hPCSK9(R357H) (human, UniProt Q8NBP7 31-692); assay: SPR, mAb captured, 25C
# T18 construct: mmh-tagged variant hPCSK9
# From the text: as §1
# [21] = target: T19, hPCSK9(E366K) (human, UniProt Q8NBP7 31-692); assay: SPR, mAb captured, 25C
# T19 construct: mmh-tagged variant hPCSK9
# From the text: as §1
# [22] = target: T20, hPCSK9(V380M) (human, UniProt Q8NBP7 31-692); assay: SPR, mAb captured, 25C
# T20 construct: mmh-tagged variant hPCSK9
# From the text: as §1
# [23] = target: T21, hPCSK9(E366K, V380M) (human, UniProt Q8NBP7 31-692); assay: SPR, mAb captured, 25C
# T21 construct: mmh-tagged variant hPCSK9
# From the text: as §1
# [24] = target: T2, hPCSK9(D374Y)-mmh; assay: SPR, mAb amine-coupled, 37C, pH 5.5
# From the text: (§2) Briefly, mAbs were immobilized onto BIACORE™ CM5 sensor chips via amine coupling.
# [25] = target: T22, cynomolgus monkey (Macaca fascicularis) PCSK9, myc-myc-his tagged (cynomolgus monkey (Macaca fascicularis), UniProt A8T662 31-692 (Macaca nemestrina entry), limits assumed); assay: SPR, mAb amine-coupled, 37C, pH 5.5
# T22 construct: also called mfPCSK9-mmh; mfPCSK9
# From the text: as §2
# [26] = target: T1, Human PCSK9-myc-myc-his; assay: SPR, mAb amine-coupled, 37C, pH 7.4
# From the text: as §2
# [27] = target: T2, hPCSK9(D374Y)-mmh; assay: SPR, mAb amine-coupled, 37C, pH 7.4
# From the text: as §2
# [28] = target: T22, cynomolgus monkey (Macaca fascicularis) …; assay: SPR, mAb amine-coupled, 37C, pH 7.4
# From the text: as §2
# [29] = target: T23, tagged rhesus monkey (Macaca mulata) PCSK9 (rhesus monkey (Macaca mulata), UniProt A8T666 31-692); assay: competition ELISA vs hLDLR-ecto, pH 7.2
# T23 construct: also called mmPCSK9-mmh; mmPCSK9
# T23 sequence (A8T666 31-692 limits assumed): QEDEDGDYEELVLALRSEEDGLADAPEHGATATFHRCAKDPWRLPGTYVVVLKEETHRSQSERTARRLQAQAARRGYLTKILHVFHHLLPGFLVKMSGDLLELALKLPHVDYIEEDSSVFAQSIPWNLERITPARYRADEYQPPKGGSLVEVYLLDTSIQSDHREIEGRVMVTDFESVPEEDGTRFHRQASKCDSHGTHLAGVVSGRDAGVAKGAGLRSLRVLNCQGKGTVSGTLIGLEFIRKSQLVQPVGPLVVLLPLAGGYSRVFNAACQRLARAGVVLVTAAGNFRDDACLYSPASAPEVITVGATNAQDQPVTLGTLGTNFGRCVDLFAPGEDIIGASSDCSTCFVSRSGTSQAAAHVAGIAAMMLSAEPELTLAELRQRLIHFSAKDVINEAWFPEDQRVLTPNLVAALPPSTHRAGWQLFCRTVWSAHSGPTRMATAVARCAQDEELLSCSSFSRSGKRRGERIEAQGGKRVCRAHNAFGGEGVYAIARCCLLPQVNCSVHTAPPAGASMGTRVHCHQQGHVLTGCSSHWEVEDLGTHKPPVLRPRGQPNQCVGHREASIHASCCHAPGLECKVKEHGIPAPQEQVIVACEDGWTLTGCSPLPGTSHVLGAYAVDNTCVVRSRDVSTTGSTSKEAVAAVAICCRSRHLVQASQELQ
# Method: Briefly, hLDLR-ecto, hLDLR EGF-A-hFc or hLDLR EGF-AB-hFc, each at 2 μg/ml, was coated on a 96-well plate in PBS buffer overnight at 4° C., and nonspecific binding sites blocked with BSA. […] The equilibrated sample solutions were transferred to receptor or receptor fragment coated plates.
# T22 sequence (A8T662 31-692 limits assumed): as the sequence (A8T666 31-692 limits assumed) above, with P607A, K639E counted along it
binder,measurement,setting,value
"H1H316P (antibody, V domains shown, Fully human mAb made in CHO cells; also called mAb316P) VH: EVQLVESGGGLVQPGGSLRLSCAASGFTFNNYAMNWVRQAPGKGLDWVSTISGSGGTTNYADSVKGRFIISRDSSKHTLYLQMNSLRAEDTAVYYCAKDSNWGNFDLWGRGTLVTVSS VL: not shown",Kd,[1],1.42 nM
same,T1/2,[1],32 min
same,Kd,[2],1.18 nM
same,T1/2,[2],34 min
same,Kd,[3],1 nM
same,T1/2,[3],37 min
same,Kd,[4],2.04 nM
same,T1/2,[4],15 min
same,Kd,[5],2.4 nM
same,T1/2,[5],36 min
same,Kd,[6],1.27 nM
same,T1/2,[6],36 min
same,Kd,[7],1.29 nM
same,T1/2,[7],32 min
same,Kd,[8],5.64 nM
same,T1/2,[8],4 min
same,Kd,[9],6.96 nM
same,T1/2,[9],5 min
same,Kd,[10],0.98 nM
same,T1/2,[10],43 min
same,Kd,[11],1.35 nM
same,T1/2,[11],28 min
same,Kd,[12],0.38 nM
same,T1/2,[12],71 min
same,Kd,[13],1.42 nM
same,T1/2,[13],27 min
same,Kd,[14],0.86 nM
same,T1/2,[14],41 min
same,Kd,[15],0.9 nM
same,T1/2,[15],43 min
same,Kd,[16],1.83 nM
same,T1/2,[16],32 min
same,Kd,[17],410 nM
same,T1/2,[17],1 min
same,Kd,[18],1.54 nM
same,T1/2,[18],21 min
same,Kd,[19],7.88 nM
same,T1/2,[19],6 min
same,Kd,[20],6.26 nM
same,T1/2,[20],30 min
same,Kd,[21],2.92 nM
same,T1/2,[21],13 min
same,Kd,[22],0.48 nM
same,T1/2,[22],63 min
same,Kd,[23],3.33 nM
same,T1/2,[23],12 min
same,Kd,[24],1.56 nM
same,T1/2,[24],5 min
same,Kd,[25],0.044 nM
same,T1/2,[25],5 min
same,Kd,[26],4 nM
same,T1/2,[26],9 min
same,Kd,[27],6.66 nM
same,T1/2,[27],4 min
same,Kd,[28],3.77 nM
same,T1/2,[28],11 min
same,IC50,[29],< 0.25 nM
"H1M300N (antibody, V domains shown, Fully human version made in CHO cells) VH: EMQLVESGGGLVQPGGSLRLSCAASGFTFSSHWMKWVRQAPGKGLEWVANINQDGSEKYYVDSVKGRFTISRDNAKNSLFLQMNSLRAEDTAVYYCARDIVLMVYDMDYYYYGMDVWGQGTTVTVSS VL: not shown",Kd,[1],1.68 nM
same,T1/2,[1],80 min
same,Kd,[2],7.87 nM
same,T1/2,[2],24 min
same,Kd,[3],0.69 nM
same,T1/2,[3],120 min
same,Kd,[4],0.66 nM
same,T1/2,[4],83 min
same,Kd,[5],1.87 nM
same,T1/2,[5],110 min
same,Kd,[6],1.4 nM
same,T1/2,[6],88 min
same,Kd,[7],9.07 nM
same,T1/2,[7],24 min
same,Kd,[8],0.56 nM
same,T1/2,[8],141 min
same,Kd,[9],0.82 nM
same,T1/2,[9],94 min
same,Kd,[10],0.58 nM
same,T1/2,[10],140 min
same,Kd,[11],0.75 nM
same,T1/2,[11],119 min
same,Kd,[12],0.65 nM
same,T1/2,[12],129 min
same,Kd,[13],0.67 nM
same,T1/2,[13],115 min
same,Kd,[14],1.03 nM
same,T1/2,[14],98 min
same,Kd,[15],1.81 nM
same,Kd,[16],0.99 nM
same,T1/2,[16],121 min
same,Kd,[17],0.78 nM
same,T1/2,[17],123 min
same,Kd,[18],0.34 nM
same,T1/2,[18],190 min
same,Kd,[19],1.18 nM
same,T1/2,[19],89 min
same,Kd,[20],6.53 nM
same,T1/2,[20],66 min
same,Kd,[21],36 nM
same,T1/2,[21],2 min
same,Kd,[22],2.82 nM
same,T1/2,[22],28 min
same,Kd,[23],78.3 nM
same,T1/2,[23],1 min
same,Kd,[24],28 nM
same,T1/2,[24],1 min
same,Kd,[25],65.2 nM
same,T1/2,[25],0.1 min
same,Kd,[26],2.47 nM
same,T1/2,[26],20 min
same,Kd,[27],2.61 nM
same,T1/2,[27],14 min
same,Kd,[28],4.81 nM
same,T1/2,[28],8 min
same,IC50,[29],0.255 nM
